This assay has as its target recombinant influenza HA3-protein (from H3N2, Wyoming, March 2003, Sino Biological Inc.) (Influenza virus H3N2 (Wyoming, March 2003)). The assay is described as follows: SPR imaging (IBIS MX96), antibody captured on anti-human-IgG chip, HA3 1 ug/ml; global 1:1 fit in Scrubber2.

Residue numbers refer to the chain shown, from its start.

B1: AT10_004 mutant C (antibody, V domains shown)
VH: QVQLVQSGAEVRKPGASVKVSCKASGYTFTRHGISWVRQAPGQGLEWMGWISAYTGDTDYAQKFQGRVTMTTDTSTNTAYMELRSLRSDDAAVYYCARLRLQGEVVVPPSQSNWFDPWGQGTLVTVSS
VL: EIVLTQSPATLSLYPGERATLSCRASQSVSRFLAWYQQKPGQAPRLLIYDASNRATGIPARFSGSGSGTDFTLTISSLEPEDFAVYYCQQRYNWLKITFGQGTRLEIKG
For B1, the Kd came to 0.06 nM, the koff amounted to 1e-06 s⁻¹ and the kon amounted to 17000 M⁻¹ s⁻¹.

B2: AT10_004 mutant B (antibody, V domains shown)
VH: B1 VH
VL: B1 VL with F32Y
Regarding B2, the Kd worked out at 0.05 nM, the koff turned out to be 1e-06 s⁻¹ and the on-rate constant (kon) was found to be 19000 M⁻¹ s⁻¹.
